Measurements reported in the RNAGym collection of RNA variant scans (doi:10.7554/elife.80360).

B1: HDV Ribozyme (parent)
chain: GGCCGGCAUGGUCCCAGCCUCCUCGCUGGCGCCGGCUGGGCAACAUUCCGAGGGGACCGUCCCCUCGGUAAUGGCGAAUGGGACCCA

Variants of: B1
Test: self-cleavage, relative activity (ratio to wild type); higher = more cleavage; co-transcriptional

Variant | self-cleavage
GGCCGGCAUGGUCCCAGCCUCCUCGCUGGCGUCGGCUGGGCAACAUUCCGAGGGGACCGUCCGCUCGGUAAUGGCGAAUGGGACCCA | 0.721
GGCCGGCAUGGUCCCAGCCUCCUCGCUGGCGUCGGCUGGGCAACAUUCCGAGGGGUCCGUCCCCUCGGUAAUGGCGAAUGGGACCCA | 0.76
GGCCGGCAUGGUCCCAGCCUCCUCGCUGGCGUCGGCUGGGCAACAUUCCGAGGGGACCGUCCCCUCGGUAAUGGCGUAUGGGACCCA | 0.496
GGCCGGCAUGGUCCCAGCCUCCUCGCUGGCGUCGGCCGGGCAACAUUCCGAGGGGACCGUCCCCUCGGUAAUGGCGAAUGGGACCCA | 1.29
GGCCGGCAUGGUCCCAGCCUCCUCGCUGGCGUCGGCGGGGCAACAUUCCGAGGGGACCGUCCCCUCGGUAAUGGCGAAUGGGACCCA | 0.166
GGCCGGCAUGGUCCCAGCCUCCUCGCUGGCGUCGGCUGGGCAACAUACCGAGGGGACCGUCCCCUCGGUAAUGGCGAAUGGGACCCA | 0.943
GGCCGGCAUGGUCCCAGCCUCCUCGCUGGCGUCGGCUGGGCAACAUUCGGAGGGGACCGUCCCCUCGGUAAUGGCGAAUGGGACCCA | 0.743
GGCCGGCAUGGUCCCAGCCUCCUCGCUGGCGUCGGCUGGGCAACAUUCCGACGGGACCGUCCCCUCGGUAAUGGCGAAUGGGACCCA | 0.751
GGCCGGCAUGGUCCCAGCCUCCUCGCUGGCGGCGGCUGGGCAACAUUCCUAGGGGACCGUCCCCUCGGUAAUGGCGAAUGGGACCCA | 0.0268
GGCCGGCAUGGUCCCAGCCUCCUCGCUGGCGGCGGCUGGGCAACAUUCCGAGGGGACCGCCCCCUCGGUAAUGGCGAAUGGGACCCA | 0.0723
GGCCGGCAUGGUCCCAGCCUCCUCGCUGGCGGCGGCUGGGCAACAUUCCGAGGGGACCGUCCCCUCGGUAAUGGCGAAUAGGACCCA | 0.0764
GGCCGGCAUGGUCCCAGCCUCCUCGCUGGCGGCGGCUGGGCAACAUUCCGAUGGGACCGUCCCCUCGGUAAUGGCGAAUGGGACCCA | 0.198
GGCCGGCAUGGUCCCAGCCUCCUCGCUGGCGGCGGCUGGGCAACAUUCCGAAGGGACCGUCCCCUCGGUAAUGGCGAAUGGGACCCA | 0.254
GGCCGGCAUGGUCCCAGCCUCCUCGCUGGCGUCGGCUGGGCAACAUUCCGAGGGGACCGUCCCAUCGGUAAUGGCGAAUGGGACCCA | 0.831
GGCCGGCAUGGUCCCAGCCUCCUCGCUGGCGUCGGCUGGGCAACAUUCCGAGGGGACCGUCCCCUCGGUAAUGGCGAGUGGGACCCA | 0.525
GGCCGGCAUGGUCCCAGCCUCCUCGCUGGCGUCGGCUGGGCAACAUUCCGAGGGGACCGUCCCCUCGGUAAUGGAGAAUGGGACCCA | 0.0692

Variant | self-cleavage
GGCCGGCAUGGUCCCAGCCUCCUCGCUGGCGGCGGCUGGGCAACAUUCCGAGGGGACCGUCCCCUCGGUAAUGGCGAAUGGGACACA | 0.0378
GGCCGGCAUGGUCCCAGCCUCCUCGCUGGCGGCGGCUGGGCAACAUUCCGAGGGGACCGUCCCCUCGGUAAUGGCGAAUGGGACGCA | 0.111
GGCCGGCAUGGUCCCAGCCUCCUCGCUGGCGGCGGCUGGGCAACAUUCCGAGGGGACCGUCCCCUCGGUAAUGGCGAAUGGGACUCA | 0.0692
GGCCGGCAUGGUCCCAGCCUCCUCGCUGGCGGCGGCUGGGCAACAUUCCGAGGGGACCGUCCCCUCGGUAAUGGCGAAUGGGAACCA | 0.0386
GGCCGGCAUGGUCCCAGCCUCCUCGCUGGCGGCGGCUGGGCAACAUUCCGAGGGGACCGUCCCCUCGGUAAUGGCGAAUGGGAUCCA | 0.0354
GGCCGGCAUGGUCCCAGCCUCCUCGCUGGCGGCGGCUGGGCAACAUUCCGAGGGGACCGUCCCCUCGGUAAUGGGGAAUGGGACCCA | 0
GGCCGGCAUGGUCCCAGCCUCCUCGCUGGCGGCGGCUGGGCAACAUUCCGAGGGGACCGUCCCCUCGGUAAUGGUGAAUGGGACCCA | 0.0468
GGCCGGCAUGGUCCCAGCCUCCUCGCUGGCGGCGGCUGGGCAACAUUCCGAGGGGACCGUCCCCUCGGUAAAGGCGAAUGGGACCCA | 0.0489
GGCCGGCAUGGUCCCAGCCUCCUCGCUGGCGGCGGCUGGGCAACAUUCCGAGGGGACCGUCCCCUCGGUAACGGCGAAUGGGACCCA | 0.104
GGCCGGCAUGGUCCCAGCCUCCUCGCUGGCGGCGGCUGGGCAACAUUCCGAGGGGACCGUCCCAUCGGUAAUGGCGAAUGGGACCCA | 0.0755
GGCCGGCAUGGUCCCAGCCUCCUCGCUGGCGGCGGCUGGGCAACAUUCCGAGGGGACCGUCCCCUCGGUAAUGGCGAAUGGCACCCA | 0.0652
GGCCGGCAUGGUCCCAGCCUCCUCGCUGGCGGCGGCUGGGCAACAUUCCGAGGGGACCCUCCCCUCGGUAAUGGCGAAUGGGACCCA | 0.0923
GGCCGGCAUGGUCCCAGCCUCCUCGCUGGCGUCGUCUGGGCAACAUUCCGAGGGGACCGUCCCCUCGGUAAUGGCGAAUGGGACCCA | 0.376
GGCCGGCAUGGUCCCAGCCUCCUCGCUGGCGGCGGCUGGGCAACAUUCCGAGGGGACCGUCCCCUCGGUAAUGGCGAAUGGGACCUA | 0.203
GGCCGGCAUGGUCCCAGCCUCCUCGCUGGCGUCGGCUGGCCAACAUUCCGAGGGGACCGUCCCCUCGGUAAUGGCGAAUGGGACCCA | 0.104
GGCCGGCAUGGUCCCAGCCUCCUCGCUGGCGUCGGCUGGGCAACAUUCCGUGGGGACCGUCCCCUCGGUAAUGGCGAAUGGGACCCA | 0.884
